Measurements from patent US20030100510A1 (KANSAS UNIVERSITY MEDICAL CENTER, published 2003).

Biological target: the molecule itself
Assay: crystal structure of the NC1 hexamer, 2.0 Å
Method: The heavy atom soak screens were carried out at beamlines 1-5 and 9-2 of Stanford Syncrhortron Radiation Laboratory (SSRL) and beamline X8C of National Synchrotron Light Source (NSLS) at Brookhaven National Laboratory. The Br-MAD data sets used in this study were collected at SSRL and processed using DENZO and […] programs of HKL2000 suite (39). The Br⁻ sites were located using SOLVE program (40) and 37 highest peaks (>6σ) were used for phasing the reflections at 2.2 Å resolution. The resulting phases were improved by solvent flattening using RESOLVE (41) and the electron density map was calculated using FFT program of CCP4 suite (42). Polypeptides of two α1 chains and one α2 chain (chains A-C) were traced using the TOM FRODO graphics program (43). The complete asymmetric unit was generated using non-crystallographic symmetry (“NCS”) relations obtained from Br⁻ sites—first the second trimer (chains D-F) was generated to complete one hexamer and then the second hexamer (chains G-L) was generated from the first hexamer. […] The structure was analyzed using SETOR(45), GRASP(46), and SURFNET(47) graphics software packages and various utility programs in CCP4 suite. The hexamer interface was analyzed using HBPLUS(48) and protein-protein interaction web server (http:/www.biochem.uc1.ac.uk/bsm/PP/server/). […]

Protein | binding result
type IV collagen α1 chain NC1 domain (bovine lens basement membrane) (other, UniProt Q7SIB2 1441-1669, looked up, domain: NC1; 5-6 N-terminal and 2 C-terminal residues are disordered in the map; also called α1 NC1; α1(IV) NC1) SVDHGFLVTRHSQTTDDPQCPPGTKILYHGYSLLYVQGNERAHGQDLGTAGSCLRKFSTMPFLFCNINNVCNFASRNDYSYWLSTPEPMPMSMAPITGENIRPFISRCAVCEAPAMVMAVHSQTIQIPQCPTGWSSLWIGYSFVMHTSAGAEGSGQALASPGSCLEEFRSAPFIECHGRGTCNYYANAYSFWLATIERSEMFKKPTPSTLKAGELRTHVSRCQVCMRRT | binds
type IV collagen (α1)2.α2 NC1 trimer (bovine lens basement membrane) (other, domain: NC1; Two such trimers make the [(α1)2.α2]2 NC1 hexamer that was crystallized. m3 is used for facts told of the trimer-trimer (hexamer) interface as a whole; also called protomer NC1 trimer; half of the [(α1)2.α2]2 NC1 hexamer) chain 1: SVDHGFLVTRHSQTTDDPQCPPGTKILYHGYSLLYVQGNERAHGQDLGTAGSCLRKFSTMPFLFCNINNVCNFASRNDYSYWLSTPEPMPMSMAPITGENIRPFISRCAVCEAPAMVMAVHSQTIQIPQCPTGWSSLWIGYSFVMHTSAGAEGSGQALASPGSCLEEFRSAPFIECHGRGTCNYYANAYSFWLATIERSEMFKKPTPSTLKAGELRTHVSRCQVCMRRT chain 2: ISIGYLLVKHSQTDQEPMCPVGMNKLWSGYSLLYFEGQEKAHNQDLGLAGSCLARFSTMPFLYCNPGDVCYYASRNDKSYWLSTTAPLPMMPVAEEDIRPYISRCSVCEAPAVAIAVHSQDVSIPHCPAGWRSLWIGYSFLMHTAAGDEGGGQSLVSPGSCLEDFRATPFIECNGARGTCHYYANKYSFWLTTIPEQSFQGTPSADTLKAGLIRTHISRCQVCMKNL | binds
